The record followed here is article PMC11778176, “The IclR-family transcriptional regulator XyrR controls flotation, motility, antibiotic production and virulence in Serratia sp. ATCC 39006”.

This data set deals with T1, IclR (XyrR, XynR homolog) (Serratia sp. ATCC 39006, UniProt A0A2I5T4I6 1-255).
T1 sequence: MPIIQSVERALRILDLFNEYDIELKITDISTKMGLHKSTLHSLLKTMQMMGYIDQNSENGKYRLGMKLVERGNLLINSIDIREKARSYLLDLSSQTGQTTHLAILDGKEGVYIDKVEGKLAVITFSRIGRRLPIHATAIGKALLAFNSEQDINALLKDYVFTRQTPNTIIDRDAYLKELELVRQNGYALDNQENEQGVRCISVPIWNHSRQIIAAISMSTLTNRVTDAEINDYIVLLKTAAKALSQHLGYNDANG
As to the kind of experiment: EMSA; complete shift at 0.8 uM IclR (stated protein:DNA 32:1; Methods state probe 5 nM); 10 mM Tris-HCl pH 8, 5 mM DTT, 50 mM KCl, 1 mM MgCl2, 10% glycerol, 0.1% Triton X-100, 30 min at 20 C; 5 nM probe. The note with it: protein: recombinant; tags: 6xHis (pQE80); chain copies: 2; label: Cy5 on LUEGO strand (S13); three strands: S15 (long) pairs with S13 followed by S14; nick between S13 and S14; blunt. On the technique in general: A gel shift assay detects complexes by their altered migration in electrophoresis.

B1: yagE promoter LUEGO probe (dsDNA)
DNA 1: CACCACAAATTGCAGTGTTAGTATCATTTCGTTAATGTAGAACTTAGTTCTATAATATAAAACAAAATATCAATGAAGATCGACTGACACATATCGATTGTTGTGA
DNA 2: TCACAACAATCGATATGTGTCAGTCGATCTTCATTGATATTTTGTTTTATATTATAGAACTAAGTTCTACATTAACGAAATGATACTAACACTGCAATTTGTGGTGCCAGACCAGGGCAC
DNA 3: GTGCCCTGGTCTGG
As to B1, the binding result is on record as “binds”.
